The record followed here is patent CN113265001A (HUADAO SHANGHAI BIOMEDICAL CO LTD, dated 2021).

For the experiment, the target named is T1, BCMA抗原 (antigen in solution, Biacore) (UniProt Q02223 1-54, limits assumed).
T1 construct: also called B细胞成熟抗原; CD269
T1 sequence (looked up): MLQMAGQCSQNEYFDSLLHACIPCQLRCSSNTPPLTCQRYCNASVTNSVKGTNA
Briefly: Biacore SPR, antibody immobilised on the chip, antigen in the mobile phase. (SPR reads the build-up and loss of mass on a sensor chip optically.)

B1: BCMA-12 VHH-mIgG2a Fc 纳米抗体 (Fc fusion)
chain: EVQLVESGGDSVQAGGSLRLSCAVSGYTDSKNLMGWFRQAPGKEREGVAVIYTGGGRPVYADSVKGRFTISQDSAKNTVYLQMNSLKPEDTALYYCAADYLGGAWPFGAYRYWGQGTQVTVSS
notes: also called BCMA VHH B12; BCMA VHH抗体; not shown: mouse IgG2a Fc tag of vector C-4 pCP.Stuffer-mCg2a-FC
Consider B1, for which binding was characterised by a dissociation constant (Kd) of 0.0634 nM, the koff (usually the first-order rate constant of dissociation) amounted to 0.000429 s⁻¹ and the kon (usually the rate constant with which the complex forms) is 6.77e+06 M⁻¹ s⁻¹.
